T1: ABP9 (Zea mays)
T1 chain: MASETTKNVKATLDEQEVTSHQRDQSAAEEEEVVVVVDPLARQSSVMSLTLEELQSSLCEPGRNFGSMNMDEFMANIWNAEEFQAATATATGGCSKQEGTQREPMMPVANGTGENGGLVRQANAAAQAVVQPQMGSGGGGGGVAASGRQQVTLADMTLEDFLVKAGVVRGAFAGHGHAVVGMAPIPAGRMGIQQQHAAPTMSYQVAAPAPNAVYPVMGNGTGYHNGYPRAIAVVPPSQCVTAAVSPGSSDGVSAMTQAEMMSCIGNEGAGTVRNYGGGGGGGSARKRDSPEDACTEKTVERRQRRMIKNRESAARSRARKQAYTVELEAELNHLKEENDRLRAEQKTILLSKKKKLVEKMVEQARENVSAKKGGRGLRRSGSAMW

T2: ABP4 (Zea mays)
T2 chain: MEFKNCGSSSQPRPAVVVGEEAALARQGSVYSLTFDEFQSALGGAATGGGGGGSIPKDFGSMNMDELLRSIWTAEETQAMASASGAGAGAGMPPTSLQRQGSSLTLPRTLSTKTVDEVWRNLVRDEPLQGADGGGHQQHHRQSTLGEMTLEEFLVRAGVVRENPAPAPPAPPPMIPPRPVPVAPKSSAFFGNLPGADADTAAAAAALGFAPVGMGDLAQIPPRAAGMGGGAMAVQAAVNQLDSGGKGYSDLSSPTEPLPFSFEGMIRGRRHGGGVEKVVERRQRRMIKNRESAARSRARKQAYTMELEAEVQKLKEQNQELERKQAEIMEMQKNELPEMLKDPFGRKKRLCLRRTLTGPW

T3: ABP2 (Zea mays)
T3 chain: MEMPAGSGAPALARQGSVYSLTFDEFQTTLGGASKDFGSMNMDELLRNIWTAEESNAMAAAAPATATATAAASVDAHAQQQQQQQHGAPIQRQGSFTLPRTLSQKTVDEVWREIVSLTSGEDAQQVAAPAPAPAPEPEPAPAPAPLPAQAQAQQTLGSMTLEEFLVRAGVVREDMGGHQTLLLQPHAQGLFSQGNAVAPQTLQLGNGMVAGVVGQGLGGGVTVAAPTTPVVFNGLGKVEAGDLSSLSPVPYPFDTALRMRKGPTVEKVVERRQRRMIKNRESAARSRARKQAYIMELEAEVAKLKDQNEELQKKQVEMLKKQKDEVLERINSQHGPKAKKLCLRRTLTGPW

B1: ABRE (dsDNA)
DNA 1: GAAGTCCACGTGGAGGTGG
DNA 2: TCCCACCTCCACGTGGACT
B2: mABRE (dsDNA)
DNA 1: GAAGTAACATGTTCGGTGG
DNA 2: TCCCACCGAACATGTTACT

Legend:
Details in all cases: tags: GST (pGEX4T-1); label: 32P 5' end (EMSA); annealed oligos with 3-nt overhangs, ligated as 4mer
ABP9 [1] = biological target: T1, ABP9; test: EMSA; 25 mM HEPES-KOH pH 7.6, 50 mM KCl, 10% glycerol, DTT, on ice
Method: (§1) Add 4 μl of 5×binding buffer (125 mM HEPES-KOH pH7.6, 50% glycerol, 250 mM KC1). Add 4 μg (9 μl) of each of the proteins ABP2, ABP4, ABP9 and GST. Add 1 μl of 1M DTT, 1 μl of probe of the above-labeled ABRE (or InABRE) and 4 μl of H₂O. Incubate on ice for 30 minutes. Add 3 μl of sample buffer (0.025% bromophenol blue in sterile H₂O) and perform polyacrylamide gel eletrophoresis analysis.
(§2) Set up the gel mixture of 9 ml of 30% acrylamide, 5 ml of 10×eletrophoresis buffer (142.7 g/L glycin, 3.92 g/L EDTA, 30.28 g/L Tris), 2.5 ml of 50% glycerol, 33 ml of deionized water, 400 μl of 10% APS, and 25 μl of TEMED. After completion of polymerization, perfom gel eletrophoresis with 1×eletrophoresis buffer, including pre-running for 10 minutes (300V), loading the samples and eletrophoresis for 1 hour (300V). Stick the gel with filter paper to peel off. Seal the peeled gel with Saran wrap and expose to X ray film for 1 hour. Wash the film, develop for 2 minutes and fix for 5 minutes. […] This means that the products of the genes ABP2, ABP4, and ABP9 also have the ABRE binding specificity in vitro.

ABP4 [2] = biological target: T2, ABP4; test: as above
Method: as §1, §2

ABP2 [3] = biological target: T3, ABP2; test: as above
Method: as §1, §2

ABP9 [4] = biological target: T1, ABP9; test: EMSA; no retarded band
Method: as §1, §2

ABP4 [5] = biological target: T2, ABP4; test: EMSA; no retarded band
Method: as §1, §2

ABP2 [6] = biological target: T3, ABP2; test: EMSA; no retarded band
Method: as §1, §2

Binder | binding result (ABP9 [1]) | binding result (ABP4 [2]) | binding result (ABP2 [3]) | binding result (ABP9 [4]) | binding result (ABP4 [5]) | binding result (ABP2 [6])
B1 | binds | binds | binds | – | – | –
B2 | – | – | – | no binding | no binding | no binding

Source: patent publication US20060021091, “Maize bZIP transcription factors and genes encoding the same and use thereof” (published 2006)
